Experimental data from paper PMC2647743 (Bioconjugate chemistry, 2008).

Assays:
[1] = Biodistribution; details: ICR SCID, mouse, in vivo, 185 kBq, total radioactivity, tumor uptake, PC-3 tumor bearing SCID mice, 15 min post-injection
[2] = tested on: PC-3 tumor xenografts; assay: Biodistribution; details: PC-3 tumor bearing SCID mice; for tumor retention: initial (15 min) uptake retained in the tumor tissue: 24 hr post-injection relative to the 15 min values

Question: Which tissue uptake at 0.25 h [1] does the source give for `CSCC[C@H](NC(=O)[C@H](CC(C)C)NC(=O)[C@H](Cc1c[nH]cn1)NC(=O)CNC(=O)[C@@H](NC(=O)[C@H](C)NC(=O)[C@H](Cc1c[nH]c2ccccc12)NC(=O)[C@H](CCC(N)=O)NC(=O)CCC(=O)NCCOCCOCCNC(=O)CN1CCN(CC(=O)O)CCN(CC(=O)O)CCN(CC(=O)O)CC1)C(C)C)C(N)=O` [In-DOTA-8-ADS-BBN(7-14)NH2] here?
Answer: Its tissue uptake at 0.25 h is 6.21 ± 1.57 %ID/g.

Question: What about the “tumor retention: initial (15 min) uptake retained in the tumor tissue” value [2] of the same molecule?
Answer: Its value is 19.8%.

Question: Which tissue uptake at 0.25 h [1] does the source give for `CSCC[C@H](NC(=O)[C@H](CC(C)C)NC(=O)[C@H](Cc1cnc[nH]1)NC(=O)CNC(=O)[C@@H](NC(=O)[C@H](C)NC(=O)[C@H](Cc1c[nH]c2ccccc12)NC(=O)[C@H](CCC(N)=O)NC(=O)CCCCCCCNC(=O)CN1CCN(CC(=O)O)CCN(CC(=O)O)CCN(CC(=O)O)CC1)C(C)C)C(N)=O` [In-DOTA-8-AOC-BBN(7-14)NH2] here?
Answer: Its tissue uptake at 0.25 h is 6.66 ± 2 %ID/g.

Question: And the Heart ([2]; 1 hr p.i., i.v.)?
Answer: The Heart was 0.19 ± 0.20 %ID/g.

Question: And the Liver ([2]; 4 hr p.i., i.v., n = 5)?
Answer: The Liver was 0.15 ± 0.02 %ID/g.

Question: What about the Lung ([2]; 24 hr p.i., i.v., n = 5) of the same molecule?
Answer: Its Lung is 0.07 ± 0.03 %ID/g.

Question: And the “tumor retention: initial (15 min) uptake retained in the tumor tissue” value [2]?
Answer: The value was 11.4%.

Question: What does the source list for `CSCC[C@H](NC(=O)[C@H](CC(C)C)NC(=O)[C@H](Cc1cnc[nH]1)NC(=O)CNC(=O)[C@@H](NC(=O)[C@H](C)NC(=O)[C@H](Cc1c[nH]c2ccccc12)NC(=O)[C@H](CCC(N)=O)NC(=O)c1ccc(NC(=O)CN2CCN(CC(=O)O)CCN(CC(=O)O)CCN(CC(=O)O)CC2)cc1)C(C)C)C(N)=O` [In-DOTA-AMBA-BBN(7-14)NH2]?
Answer: tissue uptake at 0.25 h [1]: 6.36 ± 1.6 %ID/g; tumor retention: initial (15 min) uptake retained in the tumor tissue [2]: 26.6%
